Assay results published in the supplement of paper PMC10201428.
± gives the standard deviation of the averaged measurements.

Tests used:
[1] = test system: VchCAST RNA-guided transposition machinery (E. coli BL21(DE3) host, lacZ target); test: relative integration efficiency (T-RL orientation) vs wild-type transposon end (log2 (normalized fold change)); transposon end mutated: right end (5 bp flank + 75 bp right end); higher = more efficient transposition
Procedure, shortened: (§1)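 Co-transformation of E. coli BL21(DE3) combined a pUC57 mini-transposon donor, holding barcoded pools of 1549 left-end or 1849 right-end variants, with a T7-driven plasmid encoding a CRISPR array, tniQ-cas8-cas7-cas6 and tnsA-tnsB-tnsC. After plating with 0.1 mM IPTG at 37°C for 18 h, input plasmids and genomic integration junctions were PCR-amplified and Illumina-sequenced across two biological output replicates, with four reference barcodes. Relative integration efficiency is the normalised, log-transformed output/input barcode fold change.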

[2] = test system: VchCAST RNA-guided transposition machinery (E. coli BL21(DE3) host, lacZ target); test: relative integration efficiency (T-LR orientation) vs wild-type transposon end (log2 (normalized fold change)); transposon end mutated: right end (5 bp flank + 75 bp right end); higher = more efficient transposition
Procedure, shortened: as §1

ACATTTGTTGATACAACCATAAGTTGATATTTTCACCCATAAATTGATAATTATCACAACCATAAGTTGATATTTTCTCTGATCATAGTCAGACCAACATTGCTACGACCCGTATTCGCACCGACAC
relative integration efficiency (log2) [1]: -0.215 ± 0.056 | relative integration efficiency (log2) [2]: -0.0829 ± 0.01

ACATTTGTTGATACAACCATAAGTTGATATTTTCACCCATAAATTGATAATTATCACAACCATATATTGATATCTCCTCTGATCATAGTCAGACCAACATTGCTACGACCCGTATTCGCACCGACAC
relative integration efficiency (log2) [1]: -0.64 ± 0.15 | relative integration efficiency (log2) [2]: -0.455 ± 0.14

ACATTTGTTGATACAACCATAAGTTGATATTTTCACCCATAAATTGATAATTATCACACCCATAAATTGATAATTACTCTGATCATAGTCAGACCAACATTGCTACGACCCGTATTCGCACCGACAC
relative integration efficiency (log2) [1]: 2.44 ± 0.29 | relative integration efficiency (log2) [2]: 2.73 ± 0.044

ACATTTGTTGATACAACCATAAGTTGATATTTTCACCCATAAATTGATAATTATCACACCCATAAATTGATATTGCCTCTGATCATAGTCAGACCAACATTGCTACGACCCGTATTCGCACCGACAC
relative integration efficiency (log2) [1]: 0.0993 ± 0.059 | relative integration efficiency (log2) [2]: -0.177 ± 0.84

ACATTTGTTGATACAACCATAAGTTGATATTTTCACCCATAAATTGATAATTATCAGTGGGTATTTAACTATAACGCTCTGATCATAGTCAGACCAACATTGCTACGACCCGTATTCGCACCGACAC
relative integration efficiency (log2) [1]: -1 ± 0.34 | relative integration efficiency (log2) [2]: 2.55 ± 0.051

ACATTTGTTGATACAACCATAAGTTGATATTTTCACCCATAAATTGATATTGCTCACAACCATAAAATGATAATTACTCTGATCATAGTCAGACCAACATTGCTACGACCCGTATTCGCACCGACAC
relative integration efficiency (log2) [1]: -0.631 ± 0.13 | relative integration efficiency (log2) [2]: -0.0881 ± 0.35

ACATTTGTTGATACAACCATAAGTTGATATTTTCACCCATAAATTGATATTGCTCACAACCATAAAGTGATATTTACTCTGATCATAGTCAGACCAACATTGCTACGACCCGTATTCGCACCGACAC
relative integration efficiency (log2) [1]: -0.377 ± 0.053 | relative integration efficiency (log2) [2]: -0.333 ± 0.49

ACATTTGTTGATACAACCATAAGTTGATATTTTCACCCATAAATTGATATTGCTCACAACCATAAGTTGATATTTTCTCTGATCATAGTCAGACCAACATTGCTACGACCCGTATTCGCACCGACAC
relative integration efficiency (log2) [1]: -0.281 ± 0.16 | relative integration efficiency (log2) [2]: -0.109 ± 0.43

ACATTTGTTGATACAACCATAAGTTGATATTTTCACCCATAAATTGATATTGCTCACAACCATATATTGATATCTCCTCTGATCATAGTCAGACCAACATTGCTACGACCCGTATTCGCACCGACAC
relative integration efficiency (log2) [1]: -0.904 ± 0.14 | relative integration efficiency (log2) [2]: 0.0122 ± 0.21

ACATTTGTTGATACAACCATAAGTTGATATTTTCACCCATAAATTGATATTGCTCACACCCATAAATTGATAATTACTCTGATCATAGTCAGACCAACATTGCTACGACCCGTATTCGCACCGACAC
relative integration efficiency (log2) [1]: -0.658 ± 0.16 | relative integration efficiency (log2) [2]: 0.36 ± 0.054

ACATTTGTTGATACAACCATAAGTTGATATTTTCACCCATAAATTGATATTGCTCACACCCATAAATTGATATTGCCTCTGATCATAGTCAGACCAACATTGCTACGACCCGTATTCGCACCGACAC
relative integration efficiency (log2) [1]: -0.468 ± 0.17 | relative integration efficiency (log2) [2]: 0.258 ± 0.12

ACATTTGTTGATACAACCATAAGTTGATATTTTCACCCATAAATTGATATTGCTCAGTGGGTATTTAACTATAACGCTCTGATCATAGTCAGACCAACATTGCTACGACCCGTATTCGCACCGACAC
relative integration efficiency (log2) [1]: -1.19 ± 0.12 | relative integration efficiency (log2) [2]: 2.31 ± 0.065

ACATTTGTTGATACAACCATAATATGATAATTACACCCATAATTTGATAATTATCACACCCATAATTTGATATTGCCTCTGATCATAGTCAGACCAACATTGCTACGACCCGTATTCGCACCGACAC
relative integration efficiency (log2) [1]: -0.262 ± 0.035 | relative integration efficiency (log2) [2]: -0.428 ± 0.015

ACATTTGTTGATACAACCATAATTACATAATTACACCCATAAATTGATAATTATCACACCCATAAATTGATATTGCCTCTGATCATAGTCAGACCAACATTGCTACGACCCGTATTCGCACCGACAC
relative integration efficiency (log2) [1]: -2.32 ± 0.15 | relative integration efficiency (log2) [2]: -2.85 ± 0.16

ACATTTGTTGATACAACCATAATTTGATAATTACACCCATAAATTGATAATTATCACACCCATAAATTGATATTGCCTCTGATCATAGTCAGACCAACATTGCTACGACCCGTATTCGCACCGACAC
relative integration efficiency (log2) [1]: -0.314 ± 0.1 | relative integration efficiency (log2) [2]: -0.168 ± 0.26

ACATTTGTTGATACAACCATAATTTGATAATTACACCCATAATATGATAATTATCACACCCATAATATGATATTGCCTCTGATCATAGTCAGACCAACATTGCTACGACCCGTATTCGCACCGACAC
relative integration efficiency (log2) [1]: -0.651 ± 0.15 | relative integration efficiency (log2) [2]: -0.228 ± 0.16

ACATTTGTTGATACAACCATACAATGATAATTACACCCATACATTGATAATTATCACACCCATACATTGATATTGCCTCTGATCATAGTCAGACCAACATTGCTACGACCCGTATTCGCACCGACAC
relative integration efficiency (log2) [1]: -2.95 ± 0.34 | relative integration efficiency (log2) [2]: -1.3 ± 0.016

ACATTTGTTGATACAACCATACCATGATAATTACACCCATAAATTGATAATTATCACACCCATAAATTGATATTGCCTCTGATCATAGTCAGACCAACATTGCTACGACCCGTATTCGCACCGACAC
relative integration efficiency (log2) [1]: -1.34 ± 0.079 | relative integration efficiency (log2) [2]: -1.98 ± 0.24

ACATTTGTTGATACAACCATACCATGATAATTACACCCATACCTTGATAATTATCACACCCATACCTTGATATTGCCTCTGATCATAGTCAGACCAACATTGCTACGACCCGTATTCGCACCGACAC
relative integration efficiency (log2) [1]: -3.2 ± 0.16 | relative integration efficiency (log2) [2]: -1.75 ± 0.22

ACATTTGTTGATACAACCATACCCGGATAATTACACCCATAAATTGATAATTATCACACCCATAAATTGATATTGCCTCTGATCATAGTCAGACCAACATTGCTACGACCCGTATTCGCACCGACAC
relative integration efficiency (log2) [1]: -3.77 ± 0.26 | relative integration efficiency (log2) [2]: -4.39 ± 0.99

ACATTTGTTGATACAACCATACCCGTCGCCGGCACAAACGCCCGGTCGCCGGCGACACAAACGCCCGGTCGCGGTAAGAGGATCATAGTCAGACCAACATTGCTACGACCCGTATTCGCACCGACAC
relative integration efficiency (log2) [1]: -6.48 ± 0.07 | relative integration efficiency (log2) [2]: -4.78 ± 0.59

ACATTTGTTGATACAACCATACCCTGATAATTACACCCATACCGTGATAATTATCACACCCATACCGTGATATTGCCTCTGATCATAGTCAGACCAACATTGCTACGACCCGTATTCGCACCGACAC
relative integration efficiency (log2) [1]: -4.24 ± 0.2 | relative integration efficiency (log2) [2]: -2.37 ± 1

ACATTTGTTGATACAACCATATAATGATAATAACACCAATAAAATGATAATTATCACACCCAATTTAACTATAACGCTCTGATCATAGTCAGACCAACATTGCTACGACCCGTATTCGCACCGACAC
relative integration efficiency (log2) [1]: -1.09 ± 0.33 | relative integration efficiency (log2) [2]: 1.887 ± 0.0053

ACATTTGTTGATACAACCATATAATGATAATAACACCCATAAAATGATAATTATCACACCCAATTTAACTATAACGCTCTGATCATAGTCAGACCAACATTGCTACGACCCGTATTCGCACCGACAC
relative integration efficiency (log2) [1]: -1.15 ± 0.33 | relative integration efficiency (log2) [2]: 2.16 ± 0.14

ACATTTGTTGATACAACCATATAATGATAATAACACCCCTAAAATGATAATTATCACACCCAATTTAACTATAACGCTCTGATCATAGTCAGACCAACATTGCTACGACCCGTATTCGCACCGACAC
relative integration efficiency (log2) [1]: -2.99 ± 0.37 | relative integration efficiency (log2) [2]: 0.598 ± 0.1

ACATTTGTTGATACAACCATATAATGATAATAACACCGATAAAATGATAATTATCACACCCAATTTAACTATAACGCTCTGATCATAGTCAGACCAACATTGCTACGACCCGTATTCGCACCGACAC
relative integration efficiency (log2) [1]: -1.46 ± 0.28 | relative integration efficiency (log2) [2]: 1.74 ± 0.093

ACATTTGTTGATACAACCATATAATGATAATTACACCCATATATTGATAATTATCACACCCATATATTGATATTGCCTCTGATCATAGTCAGACCAACATTGCTACGACCCGTATTCGCACCGACAC
relative integration efficiency (log2) [1]: 0.0833 ± 0.11 | relative integration efficiency (log2) [2]: 0.24 ± 0.36
